Laboratory results as given in US20230105029A1 (CHIA TAI TIANQING PHARMACEUTICAL GROUP, published 2023).
Several values for one entry are separate records, joined by “and”; a condition that tells them apart may be missing. Equal values may be shown once.

Columns and labels:
[1] = molecular target: T1, recombinant human IL4Rα-his protein (in house made) (human, UniProt P24394 26-232, limits assumed); assay: SPR (Biacore), antibody captured, IL4Rα-his flowed
T1 construct: also called Human IL4Ra-his

[2] = molecular target: T1, recombinant human IL4Rα-his protein (in …); assay: competitive ELISA: antibody mixed with biotin human IL4Rα-his, competitor plate-coated Benchmark

B1: chimeric antibody B8G11F2B7G5E8 (antibody, human IgG4 S228P, kappa, V domains shown)
VH: EVQLQQSGADLVRPGASVKLSCTASGFNIKDTYMHWVKQRPEQGLEWVGRIDPTNGYTIYASKFQGKATITADTSSNTAYMQLSSLTSGDTAVYHCVSRRPWFAYWGQGTLVTVSA
VL: DILMTQTPLSLPVSLGAQASISCRSSQSIVHSNGNTYLEWYLQKPGQSPKLLIYKVTNRFSGVPDRFSGSGSGTDFTLKISRVEAEDLGIYYCFQGSHVPYTFGGGTKLEIKR
notes: Mouse variable domains on human IgG4/kappa; also called Chimeric B8G11F2B7G5E8; chB8G11F2B7G5E8
Kd [1]: 3.68 nM and 2.69 nM | koff [1]: 0.00112 s⁻¹ and 0.00143 s⁻¹ | kon [1]: 306000 M⁻¹ s⁻¹ and 529000 M⁻¹ s⁻¹ | IC50 [2]: 1.52 nM
